Target: HER2 (His-tagged HER2 protein) (UniProt P04626 23-652)
Assay: Ni-NTA bead pull-down with RT-qPCR quantification; 1.5 mM Mg2+; 3 nM HER2, aptamer 0-100 nM; 30 mM Tris-HCl, 150 mM NaCl, 1.5 mM MgCl2, pH not stated, 30 min at room temperature (bead assay); cells 37 C, 30 min to 4 h
Conditions: tags: His

## AGCCGCGAGGGGAGGGAUAGGGUAGGGCGCGGCU (XNA, 2'-fluoro C and U (all pyrimidines)) [HER2 RNA aptamer (2'-F pyrimidine)]
  Kd: 16.5 ± 4.4 nM
